Experimental data reported in the supplement of paper PMC5998384.

Assays:
[1] = system: HeLa Kyoto; assay: melting temperature (median over replicates), in situ; higher = more thermally stable
[2] = system: HeLa Kyoto; assay: solubility change mitosis vs G1/S (difference of NP-40 vs SDS log2 ratios) (log2 ratio difference); higher = more soluble in mitosis
[3] = system: HeLa Kyoto; assay: solubility in G1/S (NP-40 vs SDS abundance) (log2 ratio); higher = more soluble; conditions: cell cycle stage: G1/S
[4] = system: HeLa Kyoto; assay: thermal stability score vs G1/S (z-score of summed log2 fold changes over temperatures); higher = more thermally stable than in G1/S
[5] = cell cycle stage: early G1 (4.5 h after nocodazole release)
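For melting temperature (median over replicates), in situ in this document: HeLa Kyoto cells synchronized by double thymidine or nocodazole block, proteins quantified by TMT10plex mass spectrometry, three independent biological replicates.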
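For solubility change mitosis vs G1/S (difference of NP-40 vs SDS log2 ratios) in this document: synchronized HeLa Kyoto cells (double thymidine block for G1/S, nocodazole release for mitosis), protein amounts in NP-40 versus SDS lysates quantified by mass spectrometry, three biological replicates.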
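For solubility in G1/S (NP-40 vs SDS abundance) in this document: HeLa Kyoto cells arrested at G1/S by double thymidine block, proteins quantified by TMT10plex mass spectrometry in mild NP-40 versus SDS extracts, three biological replicates.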
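For thermal stability score vs G1/S (z-score of summed log2 fold changes over temperatures) in this document: synchronized HeLa Kyoto cells, proteins quantified by TMT10plex mass spectrometry, three biological replicates, mitosis taken 0.5 h after nocodazole release, G1/S directly after double thymidine block.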

MAAPSPSGGGGSGGGSGSGTPGPVGSPAPGHPAVSSMQGKRKALKLNFANPPFKSTARFTLNPNPTGVQNPHIERLRTHSIESSGKLKISPEQHWDFTAEDLKDLGEIGRGAYGSVNKMVHKPSGQIMAVKRIRSTVDEKEQKQLLMDLDVVMRSSDCPYIVQFYGALFREGDCWICMELMSTSFDKFYKYVYSVLDDVIPEEILGKITLATVKALNHLKENLKIIHRDIKPSNILLDRSGNIKLCDFGISGQLVDSIAKTRDAGCRPYMAPERIDPSASRQGYDVRSDVWSLGITLYELATGRFPYPKWNSVFDQLTQVVKGDPPQLSNSEEREFSPSFINFVNLCLTKDESKRPKYKELLKHPFILMYEERAVEVACYVCKILDQMPATPSSPMYVD [MAP2K4]
melting temperature ([1]; cell cycle stage: G1/S): 50.7 °C
melting temperature ([1]; cell cycle stage: mitosis): 51.5 °C
solubility change mitosis (log2) [2]: 0.0151
solubility in G1/S (log2) [3]: 0.456
thermal stability score [4, 5]: 0.539
thermal stability score ([4]; cell cycle stage: mitosis): 0.431

MAAPVDLELKKAFTELQAKVIDTQQKVKLADIQIEQLNRTKKHAHLTDTEIMTLVDETNMYEGVGRMFILQSKEAIHSQLLEKQKIAEEKIKELEQKKSYLERSVKEAEDNIREMLMARRAQ [PFDN1]
melting temperature ([1]; cell cycle stage: G1/S): 52.9 °C
melting temperature ([1]; cell cycle stage: mitosis): 52.4 °C
solubility change mitosis (log2) [2]: 0.291
solubility in G1/S (log2) [3]: 0.242
thermal stability score [4, 5]: -5.42
thermal stability score ([4]; cell cycle stage: mitosis): -7.79

MAAQCVRLARRSLPALALSLRPSPRLLCTATKQKNSGQNLEEDMGQSEQKADPPATEKTLLEEKVKLEEQLKETVEKYKRALADTENLRQRSQKLVEEAKLYGIQAFCKDLLEVADVLEKATQCVPKEEIKDDNPHLKNLYEGLVMTEVQIQKVFTKHGLLKLNPVGAKFDPYEHEALFHTPVEGKEPGTVALVSKVGYKLHGRTLRPALVGVVKEA [GRPEL1]
melting temperature ([1]; cell cycle stage: G1/S): 51.2 °C
melting temperature ([1]; cell cycle stage: mitosis): 51 °C
solubility change mitosis (log2) [2]: 0.707
solubility in G1/S (log2) [3]: 0.661
thermal stability score [4, 5]: -2.01
thermal stability score ([4]; cell cycle stage: mitosis): -2.29

MAAQRPLRVLCLAGFRQSERGFREKTGALRKALRGRAELVCLSGPHPVPDPPGPEGARSDFGSCPPEEQPRGWWFSEQEADVFSALEEPAVCRGLEESLGMVAQALNRLGPFDGLLGFSQGAALAALVCALGQAGDPRFPLPRFILLVSGFCPRGIGFKESILQRPLSLPSLHVFGDTDKVIPSQESVQLASQFPGAITLTHSGGHFIPAAAPQRQAYLKFLDQFAE [OVCA2]
melting temperature ([1]; cell cycle stage: G1/S): 49.8 °C
melting temperature ([1]; cell cycle stage: mitosis): 51.5 °C
solubility change mitosis (log2) [2]: 0.0456
solubility in G1/S (log2) [3]: 0.171
thermal stability score [4, 5]: -1.18
thermal stability score ([4]; cell cycle stage: mitosis): -0.0698

MAAQRRSLLQSEQQPSWTDDLPLCHLSGVGSASNRSYSADGKGTESHPPEDSWLKFRSENNCFLYGVFNGYDGNRVTNFVAQRLSAELLLGQLNAEHAEADVRRVLLQAFDVVERSFLESIDDALAEKASLQSQLPEGVPQHQLPPQYQKILERLKTLEREISGGAMAVVAVLLNNKLYVANVGTNRALLCKSTVDGLQVTQLNVDHTTENEDELFRLSQLGLDAGKIKQVGIICGQESTRRIGDYKVKYGYTDIDLLSAAKSKPIIAEPEIHGAQPLDGVTGFLVLMSEGLYKALEAAHGPGQANQEIAAMIDTEFAKQTSLDAVAQAVVDRVKRIHSDTFASGGERARFCPRHEDMTLLVRNFGYPLGEMSQPTPSPAPAAGGRVYPVSVPYSSAQSTSKTSVTLSLVMPSQGQMVNGAHSASTLDEATPTLTNQSPTLTLQSTNTHTQSSSSSSDGGLFRSRPAHSLPPGEDGRVEPYVDFAEFYRLWSVDHGEQSVVTAP [TAB1]
melting temperature ([1]; cell cycle stage: G1/S): 49.4 °C
melting temperature ([1]; cell cycle stage: mitosis): 49.7 °C
solubility change mitosis (log2) [2]: -0.0812
solubility in G1/S (log2) [3]: 0.302
thermal stability score [4, 5]: -0.0541
thermal stability score ([4]; cell cycle stage: mitosis): 1.34

MAARAGFQSVAPSGGAGASGGAGAAAALGPGGTPGPPVRMGPAPGQGLYRSPMPGAAYPRPGMLPGSRMTPQGPSMGPPGYGGNPSVRPGLAQSGMDQSRKRPAPQQIQQVQQQAVQNRNHNAKKKKMADKILPQRIRELVPESQAYMDLLAFERKLDQTIMRKRLDIQEALKRPIKQKRKLRIFISNTFNPAKSDAEDGEGTVASWELRVEGRLLEDSALSKYDATKQKRKFSSFFKSLVIELDKDLYGPDNHLVEWHRTATTQETDGFQVKRPGDVNVRCTVLLMLDYQPPQFKLDPRLARLLGIHTQTRPVIIQALWQYIKTHKLQDPHEREFVICDKYLQQIFESQRMKFSEIPQRLHALLMPPEPIIINHVISVDPNDQKKTACYDIDVEVDDTLKTQMNSFLLSTASQQEIATLDNKIHETIETINQLKTQREFMLSFARDPQGFINDWLQSQCRDLKTMTDVVGNPEEERRAEFYFQPWAQEAVCRYFYSKVQQRRQELEQALGIRNT [SMARCD1]
melting temperature ([1]; cell cycle stage: G1/S): 47.4 °C
melting temperature ([1]; cell cycle stage: mitosis): 49.3 °C
solubility change mitosis (log2) [2]: -0.0288
solubility in G1/S (log2) [3]: 0.347
thermal stability score [4, 5]: 0.481
thermal stability score ([4]; cell cycle stage: mitosis): 1.5

MAARCSTRWLLVVVGTPRLPAISGRGARPPREGVVGAWLSRKLSVPAFASSLTSCGPRALLTLRPGVSLTGTKHNPFICTASFHTSAPLAKEDYYQILGVPRNASQKEIKKAYYQLAKKYHPDTNKDDPKAKEKFSQLAEAYEVLSDEVKRKQYDAYGSAGFDPGASGSQHSYWKGGPTVDPEELFRKIFGEFSSSSFGDFQTVFDQPQEYFMELTFNQAAKGVNKEFTVNIMDTCERCNGKGNEPGTKVQHCHYCGGSGMETINTGPFVMRSTCRRCGGRGSIIISPCVVCRGAGQAKQKKRVMIPVPAGVEDGQTVRMPVGKREIFITFRVQKSPVFRRDGADIHSDLFISIAQALLGGTARAQGLYETINVTIPPGTQTDQKIRMGGKGIPRINSYGYGDHYIHIKIRVPKRLTSRQQSLILSYAEDETDVEGTVNGVTLTSSGGSTMDSSAGSKARREAGEDEEGFLSKLKKMFTS [DNAJA3]
melting temperature ([1]; cell cycle stage: G1/S): 48.4 °C
melting temperature ([1]; cell cycle stage: mitosis): 50.3 °C
solubility change mitosis (log2) [2]: -0.0129
solubility in G1/S (log2) [3]: -0.186
thermal stability score [4, 5]: -0.681
thermal stability score ([4]; cell cycle stage: mitosis): 0.373

MAARTVIIDHGSGFLKAGTAGWNEPQMVFPNIVNYLPCKENPGPSYARRRVSLGIDICHPDTFSYPIERGRILNWEGVQYLWSFVLENHRREQEVPPVIITETPLREPADRKKMLEILFELLHVPSVLLADQLQMSLYASGLLTGVVVDSGYGLTRVQPFHQGRPLPASGKTLEFAGQDLSAYLLKSLFKEDCDRRCLFQLETVAVTQMNKCYVPQNLGEALDFRERQQSALDESNTYQLPDGSRVELTPMQRVAPEMFFSPQVFEQPGPSIPRAIVESVESCEISLRPLLVSHVMACGGNTLYPGFTKRLFRELMGDHVSSTKATVWEGSNRNFSVWLGASVVAHLSTYQSEWMSREEYGEHMRM [ACTL8]
melting temperature ([1]; cell cycle stage: G1/S): 52.8 °C
melting temperature ([1]; cell cycle stage: mitosis): 52.4 °C
solubility change mitosis (log2) [2]: 0.0715
solubility in G1/S (log2) [3]: -0.19
thermal stability score [4, 5]: -0.233
thermal stability score ([4]; cell cycle stage: mitosis): -1.1
